Experimental data taken from article PMC2965237 (Nucleic Acids Research, 2010).

B1: RdgC Δfinger (P76G, Δ77–115, L116T) (natural protein)
chain: not shown
B2: RdgC protein (Escherichia coli), wild type (natural protein)
chain: not shown
B3: RdgC R118C (natural protein)
chain: not shown
B4: RdgC Δfinger R118C (natural protein)
chain: not shown

Molecular target: the molecule itself
Test: SEC

Protein	binding result	stoichiometry N
B1	binds	–
B2	–	2
B3	binds	–
B4	binds	–
